Reference: US7217693B2, “Human G protein-coupled receptor expressed in the dorsal root ganglia” (National Research Council of Canada, priority 1997, dated 2007)

Biological target: T1, human clone 24 (Homo sapiens, UniProt Q96LB2, E310Q/I312T/I5V)
T1 construct: expressed in transfected cells
Assay: Calcium signaling (FURA-2) in stably transfected HEK293 cells 293/pcDNA3-HML-HA24
Type: cell-based
Settings: stably transfected HEK293 cell line 293/pcDNA3-HML-HA24, FURA-2 AM, peptides added successively
Procedure: The coding sequence of human clone 24 was transferred into a pcDNA3 vector and modified to add a haemaglutinin tag at the C-terminus of the receptor sequence. This clone, designated as pcDNA3-HML-HA24 was transfected into HEK293 cells using a modified CaCl2 method (Maniatis, Molecular Cloning: A Laboratory Manual, Cold Spring Harbor Laboratory Press (1989)). The cells were maintained in culture medium at 37° C., 5% CO2 and diluted 10 fold every 3 days.
The cells were inoculated in 90 mm tissue culture dishes (5×10^5 cells per flask) in Dulbecco's Modified Essential Medium (DMEM, Gibco BRL), supplemented with 10% fetal bovine serum (FBS), 100 U/ml penicillin, 100 μg/ml streptomycin and 0.25 μg/ml fungizone. One day after inoculation, cells were transiently transfected with 30 μg of plasmid DNA per dish. The cells were harvested 48 hours post transfection for analysis. The expression of the gene was first checked by immunoprecipitation and western blotting with an anti-haemaglutinin antibody. A protein of approximately 43 KD was detected in stably as well as transiently transfected HEK293 cells, but not in control cells.
Stably transfected HEK293 cells were obtained after approximately 21 days of selection in culture medium containing 800 μg/ml G418. Calcium signaling measurement was performed with one of these stably transfected cell line, 293/pcDNA3-HML-HA24. The cells were grown on a 24 mm round glass cover slides to 50–70% confluence. […] The calcium displacement was measured using a PTI (Photon Technology International) D104 photometer equipped with a PTI Delta RAM High speed multiwavelength illuminator, a PTI SC500 Shutter controller, a PTI LPS220 ARC lamp supply and the PTI FELIX software, v.1.2. […] The cells were exposed to 340 and 380 nm light and the 510 nm light emitted by the cells was recorded. […]

T1 sequence (Q96LB2 whole entry I5V/E310Q/I312T): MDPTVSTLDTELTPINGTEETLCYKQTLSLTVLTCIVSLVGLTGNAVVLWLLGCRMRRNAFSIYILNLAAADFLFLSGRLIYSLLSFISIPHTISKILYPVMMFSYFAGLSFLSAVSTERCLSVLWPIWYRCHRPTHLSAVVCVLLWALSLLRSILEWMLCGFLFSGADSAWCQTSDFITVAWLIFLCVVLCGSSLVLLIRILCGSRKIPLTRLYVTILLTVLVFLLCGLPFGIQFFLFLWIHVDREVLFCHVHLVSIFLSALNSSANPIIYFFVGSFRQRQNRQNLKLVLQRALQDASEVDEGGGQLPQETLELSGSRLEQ

## angiotensin III
  calcium displacement response upon stimulation: a significant response

## Angiotensin I (DRVYIHPFHL) [peptide added to DRR-transfected cells in calcium signaling assay]
  calcium displacement response upon stimulation: no response

## angiotensin II (DRVYIHPF) [peptide added to DRR-transfected cells in calcium signaling assay]
  calcium displacement response upon stimulation: a significant response
